Laboratory results as given in PMC8278322 (Cancer research, 2020).

Biological target: T1, Gal4-fused SMAD4 (UniProt Q13485 1-552)
T1 sequence (looked up): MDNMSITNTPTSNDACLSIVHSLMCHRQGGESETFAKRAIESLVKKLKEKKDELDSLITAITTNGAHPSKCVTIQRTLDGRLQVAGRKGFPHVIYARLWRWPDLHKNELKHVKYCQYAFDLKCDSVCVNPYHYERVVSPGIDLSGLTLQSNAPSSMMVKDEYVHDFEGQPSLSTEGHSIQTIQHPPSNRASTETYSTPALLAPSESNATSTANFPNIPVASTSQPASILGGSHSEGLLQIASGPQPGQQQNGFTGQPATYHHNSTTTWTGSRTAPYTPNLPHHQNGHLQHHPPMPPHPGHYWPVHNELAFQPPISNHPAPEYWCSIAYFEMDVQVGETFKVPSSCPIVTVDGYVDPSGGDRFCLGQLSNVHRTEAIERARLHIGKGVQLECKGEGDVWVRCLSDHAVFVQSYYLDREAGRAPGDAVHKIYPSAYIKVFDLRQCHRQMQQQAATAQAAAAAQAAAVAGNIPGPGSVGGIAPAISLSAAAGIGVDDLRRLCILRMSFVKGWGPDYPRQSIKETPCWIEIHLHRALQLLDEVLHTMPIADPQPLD
Test: two-hybrid

B1: pVP16-fused FOXL2^C134W (natural protein, human, UniProt P58012 1-376, looked up)
chain: MMASYPEPEDAAGALLAPETGRTVKEPEGPPPSPGKGGGGGGGTAPEKPDPAQKPPYSYVALIAMAIRESAEKRLTLSGIYQYIIAKFPFYEKNKKGWQNSIRHNLSLNECFIKVPREGGGERKGNYWTLDPAWEDMFEKGNYRRRRRMKRPFRPPPAHFQPGKGLFGAGGAAGGCGVAGAGADGYGYLAPPKYLQSGFLNNSWPLPQPPSPMPYASCQMAAAAAAAAAAAAAAGPGSPGAAAVVKGLAGPAASYGPYTRVQSMALPPGVVNSYNGLGGPPAAPPPPPHPHPHPHAHHLHAAAAPPPAPPHHGAAAPPPGQLSPASPATAAPPAPAPTSAPGLQFACARQPELAMMHCSYWDHDSKTGALHSRLDL
Which “fold luciferase activity against pVP16-fused wildtype FOXL2” value does the source give for B1 here?
The value was ~20 fold.
